The source of these data is paper PMC3701577, “Characterization of DNA Binding Property of the HIV-1 Host Factor and Tumor Suppressor Protein Integrase Interactor 1 (INI1/hSNF5)”.

The target in series [1] is INI1 DNA binding domain (INI1/hSNF5 amino acids 105-183) (human) (UniProt Q12824). The experiment in a line: AUC; sedimentation equilibrium, 60 µM INI1 DBD (monomer concentration), 4°C, 13,000-28,000 rpm, 20 mM HEPES-KOH pH 7.2, 100 mM KCl, 5-7% glycerol, 1 mM DTT, absorbance at 280 nm; species analysis in SEDPHAT.
In another series the target is T1, SNR1 DBD, SNR1(90-167) (Drosophila melanogaster, UniProt Q7K0F9 90-167).
T1 sequence: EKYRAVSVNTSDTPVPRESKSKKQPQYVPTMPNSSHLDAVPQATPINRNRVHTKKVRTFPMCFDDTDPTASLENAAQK
Put plainly: Ni-NTA pull-down; 55 uM dimer, 110 uM DNA; ITC at 25 C (buffer not stated in material; protein dialyzed in 20 mM HEPES pH 7.2, 100 mM KCl, 10% glycerol, 0.1 mM EDTA, 1 mM DTT); pull-down in 20 mM HEPES pH 7.2, 100 mM KCl, 5% glycerol, 1 mM DTT, RT 30 min then ice. Conditions: protein: recombinant; tags: His tag (pET28a), 37-aa N-terminal extension; chain copies: 2; 5' overhang 2 nt on strand 1 (AC).

For the next series, the target named is INI1 DBD, INI1(105-183) (human, UniProt Q12824 105-183). The experiment in a line: ITC; 10 uM monomer, 55 uM DNA in syringe; one-site, N=0.49; ITC at 25 C (buffer not stated in material; protein dialyzed in 20 mM HEPES pH 7.2, 100 mM KCl, 10% glycerol, 0.1 mM EDTA, 1 mM DTT); pull-down in 20 mM HEPES pH 7.2, 100 mM KCl, 5% glycerol, 1 mM DTT, RT 30 min then ice. The settings on record: protein: recombinant; tags: His tag (pET28a), 24-aa N-terminal extension; 5' overhang 2 nt on strand 1 (AC). In general terms: In ITC the heat of successive injections is recorded.

Series [2] addresses INI1 DBD dimer, INI1(105-183) (human, UniProt Q12824 105-183). Put plainly: ITC; 30 uM dimer, 325 uM DNA in syringe; sequential model, first binding event; ITC at 25 C (buffer not stated in material; protein dialyzed in 20 mM HEPES pH 7.2, 100 mM KCl, 10% glycerol, 0.1 mM EDTA, 1 mM DTT); pull-down in 20 mM HEPES pH 7.2, 100 mM KCl, 5% glycerol, 1 mM DTT, RT 30 min then ice. Conditions: protein: recombinant; tags: His tag (pET28a), 24-aa N-terminal extension; chain copies: 2; 5' overhang 2 nt on strand 1 (AC).

Sequence of INI1 DBD dimer, INI1(105-183) (Q12824 105-183): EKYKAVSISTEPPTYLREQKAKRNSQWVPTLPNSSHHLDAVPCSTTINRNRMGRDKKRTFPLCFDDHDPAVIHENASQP
Sequence of INI1 DBD, INI1(105-183) (Q12824 105-183): as above

By stoichiometry N is commonly meant a count of units in the complex or per binding partner. As to “INI1 DNA binding domain (INI1/hSNF5 amino acids 105-183) (from UniProt Q12824 105-183) (domain or fragment)”, in series [1], the stoichiometry N amounted to 2.

B1: U5 HIV-1 LTR DNA (U5.4/U5.5) (dsDNA)
DNA 1: ACTGCTAGAGATTTTCCGGATCC
DNA 2: GGATCCGGAAAATCTCTAGCA
As usually defined, the Kd is the constant that tells how readily two partners part at equilibrium. As to B1, the binding result in the series with SNR1 DBD, SNR1(90-167) is “binds”. Besides, the Kd with INI1 DBD, INI1(105-183) was found to be 0.94 ± 0.02 µM; in series [2] it was 222 ± 51.8 µM.
